Measured values from patent US20060272037A1.

Molecular target: Alpha2a adrenergic receptor-cam "chameleon" (mouse)
Experiment: cell-based or functional assay

Kd of the agonist [^3H]UK14304 on membranes containing α2AAR-cam after addition of purified Go: 3.4 nM
Kd of the agonist [^3H]UK14304 on the same membranes with Go after addition of GTPγS: 9.6 nM
reduction by GTPγS of the FRET signal caused by 5 nM UK14304 in the presence of Go: > 50%
reduction by GTPγS of the binding of 5 nM [^3H]UK14304 in the presence of Go: > 50%
Substance: purified Go protein
